Consider 125 sequences from the supplement of paper PMC9112550, “Optimization of the antimicrobial peptide Bac7 by deep mutational scanning” (BMC Biology, 2022).

This data set has as its system Escherichia coli TOP10. Kind of data set: shrunken log2 fold change of peptide-encoding DNA abundance (4.5 h post-induction vs induction); higher = less antimicrobial activity (less host growth inhibition). The note with it: time post-induction: 4.5 h; library: site-saturation at positions 5, 18, 19, 20.
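Further: peptides expressed intracellularly from a pBAD plasmid library in pooled LB shake-flask culture, induced with 0.3% L-arabinose, DNA abundance read by NGS, three biological replicates, DESeq2 with apeglm shrinkage.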

In the case of RRIRNRPPRLPRPRPRPQCEPRP, the “shrunken log2 fold change” value is 0.0399. The value for RRIRLRPPRLPRPRPRPEHVPRP was -0.0237; that for RRIRNRPPRLPRPRPRPGGMPRP was -0.0941. For RRIRCRPPRLPRPRPRPIDTPRP, the “shrunken log2 fold change” value was -0.385. The value for RRIRTRPPRLPRPRPRPEVSPRP was -0.28; that for RRIRHRPPRLPRPRPRPIPCPRP was -0.0558; that for RRIRHRPPRLPRPRPRPNRCPRP was -0.259. As for RRIRIRPPRLPRPRPRPRVTPRP, the “shrunken log2 fold change” value is -0.0426.

For RRIRWRPPRLPRPRPRPECLPRP, the “shrunken log2 fold change” value amounted to 0.444. The value for RRIRERPPRLPRPRPRPQFTPRP was -0.472; that for RRIRVRPPRLPRPRPRPHMHPRP was -0.517. The value for RRIRDRPPRLPRPRPRPSLVPRP was -0.0908; that for RRIRSRPPRLPRPRPRPWHQPRP was -0.25. The value for RRIRSRPPRLPRPRPRPELRPRP was 0.382.

In the case of RRIRSRPPRLPRPRPRPAVIPRP, the “shrunken log2 fold change” value was -0.593. Consider RRIRNRPPRLPRPRPRPCDHPRP, for which the “shrunken log2 fold change” value was -0.0208. To RRIRDRPPRLPRPRPRPYHFPRP belongs -0.277. The value for RRIRIRPPRLPRPRPRPMLMPRP was -0.515; that for RRIRPRPPRLPRPRPRPKTGPRP was 0.186. To RRIRSRPPRLPRPRPRPPLIPRP belongs 0.191; to RRIRTRPPRLPRPRPRPWPNPRP, -0.124; to RRIRCRPPRLPRPRPRPVDCPRP, -0.2.

Regarding RRIRLRPPRLPRPRPRPVRSPRP, the “shrunken log2 fold change” value is 0.53. Turning to RRIRCRPPRLPRPRPRPIAMPRP, the “shrunken log2 fold change” value is -0.0964. The value for RRIRFRPPRLPRPRPRPHKCPRP was -0.106; that for RRIRNRPPRLPRPRPRPKFAPRP was -0.0695. To RRIRDRPPRLPRPRPRPPVWPRP belongs 1.04; to RRIRLRPPRLPRPRPRPHQYPRP, -0.297; to RRIRMRPPRLPRPRPRPPGQPRP, 1.24.

Take RRIRERPPRLPRPRPRPDCGPRP: the “shrunken log2 fold change” value is 0.0191. The value for RRIRCRPPRLPRPRPRPPWNPRP was -0.0539; that for RRIRSRPPRLPRPRPRPRKLPRP was 0.316; that for RRIRMRPPRLPRPRPRPPDEPRP was 2.96. The value for RRIRMRPPRLPRPRPRPSKAPRP was 0.455; that for RRIRSRPPRLPRPRPRPKPIPRP was 0.271. To RRIRSRPPRLPRPRPRPQPGPRP belongs 0.287. With RRIRHRPPRLPRPRPRPSEKPRP, the “shrunken log2 fold change” value was -0.144.

In the case of RRIRIRPPRLPRPRPRPTGMPRP, the “shrunken log2 fold change” value is -0.161. Regarding RRIRWRPPRLPRPRPRPGPYPRP, the “shrunken log2 fold change” value was -0.161. The value for RRIRRRPPRLPRPRPRPFAGPRP was -0.0164; that for RRIRSRPPRLPRPRPRPIDLPRP was -0.546; that for RRIRVRPPRLPRPRPRPCFIPRP was -0.599. The value for RRIRFRPPRLPRPRPRPFSIPRP was -0.401; that for RRIRHRPPRLPRPRPRPIMKPRP was -0.317; that for RRIRVRPPRLPRPRPRPFMHPRP was -0.156.

RRIRFRPPRLPRPRPRPPHNPRP: the “shrunken log2 fold change” value worked out at 0.0036. With RRIRARPPRLPRPRPRPHHIPRP, the “shrunken log2 fold change” value is -0.345. The value for RRIRLRPPRLPRPRPRPHIRPRP was -0.108. The value for RRIRPRPPRLPRPRPRPCGSPRP was -0.023.

For RRIRSRPPRLPRPRPRPRHAPRP, the “shrunken log2 fold change” value came to 0.39.

With RRIRNRPPRLPRPRPRPQHIPRP, the “shrunken log2 fold change” value was -0.114. The value for RRIRMRPPRLPRPRPRPKFEPRP was 0.109; that for RRIRFRPPRLPRPRPRPFIRPRP was -0.588. The value for RRIRIRPPRLPRPRPRPQKNPRP was -0.355; that for RRIRVRPPRLPRPRPRPIIFPRP was -0.286. To RRIRPRPPRLPRPRPRPNERPRP belongs 0.181; to RRIRKRPPRLPRPRPRPAWFPRP, 0.0729.

In the case of RRIRERPPRLPRPRPRPCCPPRP, the “shrunken log2 fold change” value is -0.159. As for RRIRIRPPRLPRPRPRPLCYPRP, the “shrunken log2 fold change” value was -1.07. To RRIRFRPPRLPRPRPRPMKDPRP belongs -0.47; to RRIRYRPPRLPRPRPRPPSQPRP, 0.0859.

Regarding RRIRTRPPRLPRPRPRPMVKPRP, the “shrunken log2 fold change” value is -0.0282. To RRIRPRPPRLPRPRPRPPKVPRP belongs 0.122; to RRIRHRPPRLPRPRPRPFNRPRP, 0.00911; to RRIRTRPPRLPRPRPRPFIFPRP, -0.447. To RRIRPRPPRLPRPRPRPLEKPRP belongs 0.261; to RRIRNRPPRLPRPRPRPWDQPRP, 0.0603. The value for RRIRSRPPRLPRPRPRPQLLPRP was -0.182; that for RRIRRRPPRLPRPRPRPKSRPRP was 0.174. Consider RRIRTRPPRLPRPRPRPAVGPRP, for which the “shrunken log2 fold change” value is 0.532.

On to RRIRARPPRLPRPRPRPDKPPRP, for which the “shrunken log2 fold change” value was 0.865.

RRIRYRPPRLPRPRPRPTNYPRP: the “shrunken log2 fold change” value is 1.18. With RRIRSRPPRLPRPRPRPEVDPRP, the “shrunken log2 fold change” value turned out to be 0.51.

As to RRIRLRPPRLPRPRPRPMETPRP, the “shrunken log2 fold change” value turned out to be 0.483. Take RRIRLRPPRLPRPRPRPLAIPRP: the “shrunken log2 fold change” value stood at 0.221.

For RRIRPRPPRLPRPRPRPMYDPRP, the “shrunken log2 fold change” value is -0.0348. To RRIRDRPPRLPRPRPRPMRQPRP belongs 0.0681. The value for RRIRYRPPRLPRPRPRPPRIPRP was -0.0175.

Regarding RRIRFRPPRLPRPRPRPYDIPRP, the “shrunken log2 fold change” value was -0.0365. To RRIRTRPPRLPRPRPRPFMIPRP belongs -0.0265; to RRIRSRPPRLPRPRPRPNYNPRP, -0.904.

In the case of RRIRVRPPRLPRPRPRPQRYPRP, the “shrunken log2 fold change” value was -0.883. The value for RRIRARPPRLPRPRPRPMQLPRP was 0.206.

Take RRIRHRPPRLPRPRPRPEWVPRP: the “shrunken log2 fold change” value was -0.086. The value for RRIRPRPPRLPRPRPRPDPYPRP was 0.0668; that for RRIRERPPRLPRPRPRPKATPRP was 0.205. For RRIRPRPPRLPRPRPRPIYAPRP, the “shrunken log2 fold change” value is -0.0839. To RRIRWRPPRLPRPRPRPATNPRP belongs 0.317; to RRIRRRPPRLPRPRPRPRVVPRP, 0.215; to RRIRNRPPRLPRPRPRPQHMPRP, -0.605. The value for RRIRWRPPRLPRPRPRPNCEPRP was 0.0915; that for RRIRCRPPRLPRPRPRPCHVPRP was -0.00144; that for RRIRERPPRLPRPRPRPCSVPRP was -0.0625. As for RRIRERPPRLPRPRPRPTWDPRP, the “shrunken log2 fold change” value is -0.327.

RRIRARPPRLPRPRPRPAAWPRP: the “shrunken log2 fold change” value was 0.613. Consider RRIRVRPPRLPRPRPRPCAMPRP, for which the “shrunken log2 fold change” value was -0.16. To RRIRQRPPRLPRPRPRPNWWPRP belongs 0.00333; to RRIRIRPPRLPRPRPRPMGCPRP, 0.00177; to RRIRFRPPRLPRPRPRPWQFPRP, -0.333. For the sequence RRIRCRPPRLPRPRPRPDQAPRP, the “shrunken log2 fold change” value amounted to 0.288.

Regarding RRIRIRPPRLPRPRPRPAKHPRP, the “shrunken log2 fold change” value was -0.476. The value for RRIRERPPRLPRPRPRPYSHPRP was 0.0583; that for RRIRRRPPRLPRPRPRPEWAPRP was 0.437.

With RRIRWRPPRLPRPRPRPRAAPRP, the “shrunken log2 fold change” value was determined as 1.04. To RRIRYRPPRLPRPRPRPQSTPRP belongs -1.2; to RRIRRRPPRLPRPRPRPQVAPRP, 0.157; to RRIRYRPPRLPRPRPRPKMKPRP, -0.404. The value for RRIRFRPPRLPRPRPRPCWEPRP was -0.356; that for RRIRSRPPRLPRPRPRPYVLPRP was -0.277; that for RRIRMRPPRLPRPRPRPQVFPRP was 0.281. The value for RRIRERPPRLPRPRPRPSKFPRP was -0.199. Consider RRIRARPPRLPRPRPRPIMTPRP, for which the “shrunken log2 fold change” value turned out to be 0.0421. To RRIRCRPPRLPRPRPRPEELPRP belongs 0.249; to RRIRSRPPRLPRPRPRPVQNPRP, 0.0832. With RRIRCRPPRLPRPRPRPKTHPRP, the “shrunken log2 fold change” value is -0.115. The value for RRIRMRPPRLPRPRPRPPPPPRP was 2.05. The value for RRIRARPPRLPRPRPRPWMMPRP was -0.248; that for RRIRHRPPRLPRPRPRPSSSPRP was -0.258; that for RRIRPRPPRLPRPRPRPWCMPRP was -0.355. In the case of RRIRCRPPRLPRPRPRPRFIPRP, the “shrunken log2 fold change” value is -0.171.

For RRIRERPPRLPRPRPRPVNNPRP, the “shrunken log2 fold change” value is -0.871. To RRIRKRPPRLPRPRPRPDTAPRP belongs 0.154. To RRIRNRPPRLPRPRPRPNQFPRP belongs -0.376.

RRIRERPPRLPRPRPRPQCTPRP: the “shrunken log2 fold change” value was -0.012. To RRIRHRPPRLPRPRPRPALCPRP belongs 0.174.
